B1: VH:VL chains; a variant is named by its letters at X, in order (parent)
chain 1: QVQLVQSGAEVKKPGASVKVSCKASGYTFTDYXMHWVRQAPGQGLEWMGXVNPNXXXTTYNQKFEGRVTMTTDTSTSTAYMELRSLRSDDTAVYYCARXNXLDXWGQGTTVTVSS
chain 2: DIQMTQSPSSLSASVGDRVTITCSVSSSVSSIYLHWYQQKPGKAPKLLIYSTSNLASGVPSRFSGSGSGTDFTLTISSLQPEDFATYYCQVYSGYPLTFGGGTKVEIK

Variants of: B1
Test: yeast display scFab, FACS + sequencing
In short: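 The non-specific binding call was based on sorted and sequenced yeast displaying a heavy-chain CDR mutant scFab library. Labelling used anti-Myc with biotinylated ovalbumin (260 μg/mL in PBSB, 3 h, room temperature) or soluble membrane proteins (130 μg/mL, 20 min on ice), and FACS collected the top 25% and bottom 10% of binders in two replicates. Positive meant present in ≥3 of 4 pooled positive samples and in no negatives, and negative meant the converse.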

Variant | non-specific binding call
YRGEGSAS | binds
YRARSSSD | binds
YREKDSAD | no binding
YRGADFGF | binds
YRERGAWV | binds
YRARSAAD | binds
YRARSAAV | binds
YRGEASVD | binds
FRGEGALV | binds
YRGASAAA | binds
YREKGSSA | binds
YREKGSSV | binds
FRARGSWV | binds
YRERGSSF | binds
YRGAGAAA | binds
YRGAGAAD | binds
YRARGSSS | binds
YREKAAWA | binds
DREGGVSD | binds
YREGGDGA | no binding
YRARSAWV | binds
YRARSAWA | binds
YRARSAWS | binds
DREEGVGV | no binding
FRGEAVVY | binds

Variant | non-specific binding call
FRERGALA | binds
YRATDFVV | binds
YRGEGASD | binds
YRARGYVY | binds
SREGGVVV | binds
SREAADAV | no binding
YREGGFAA | binds
DREEGDWA | no binding
DREEGDWV | no binding
SREAAAVY | no binding
YRERSDVS | binds
SREAASGV | no binding
DREEGAGA | no binding
DREEGAGV | no binding
DREEGAGS | no binding
YRARGSLF | binds
FREKDSAD | no binding
YRGASSWV | binds
FRARSSGF | binds
YRGEGDAV | no binding
YRGEGDAA | no binding
YREKGAGD | binds
YRGESAVD | binds
VREGDYLS | binds
VRERGDAS | binds

Variant | non-specific binding call
VRERGDAA | no binding
FRERGSAV | binds
FRERGSAD | binds
YRERTAAV | binds
YRERNAAA | binds
FREGSAVA | binds
YRARGVVV | binds
YRARGSWD | binds
YRARGSWS | binds
FRARSAAV | binds
FRARSAAA | binds
AREGDDVA | no binding
YRARSSLY | binds
YRARSSLA | binds
YREGGSVD | no binding
DRERGDGY | no binding
FRGESSWD | binds
FREGGAVS | binds
FRERGYGA | binds
SREAADGV | no binding
YREKGSLD | binds
YRARSSWS | binds
YRARSSWD | binds
VRGEGSWD | binds
YRGANVVY | binds

Variant | non-specific binding call
VRERSSVD | binds
FREKGDLA | no binding
YRERGAGF | binds
YRARSFGD | binds
YRARSFGS | binds
FREGASWD | binds
FRGESAGA | binds
FRGESAGV | binds
FRGESAGS | binds
FRGAGSVD | binds
FRGAGSVA | binds
DREEGDAV | no binding
YRARGYGV | binds
AREKGSAA | binds
YRARGVGV | binds
YRARGVGA | binds
FRGESAAA | binds
YREGGSLD | binds
VRERGASD | binds
ARGAGYGS | binds
YRGEGAVS | binds
YRGAGSLD | binds
YRGESSGF | binds
VREEGDGA | no binding
YRGANSGA | binds

Variant | non-specific binding call
ARGEGSGV | no binding
SRGANAWD | binds
FRERGAGY | binds
FRERGAGD | binds
FRGEGSVS | binds
DREGDAVA | no binding
YRGAGAWV | binds
YRGAGAWS | binds
YRGAGAWA | binds
VRERGDGV | no binding
VRERGDGS | no binding
YRGAGSVD | binds
YRGAGALV | binds
YREKGAAA | binds
YREGGAGV | binds
FREGGALD | binds
YRARSAGF chain 1 G108D | binds
YRERGAVV | binds
DREEGSWV | no binding
YRERGALS | binds
YRERGALA | binds
YRGAGFVD | binds
YREEGDGV | no binding
YRERSSVA | binds

Reference: the emibetuzumab library of Makowski et al. (2022)
